The text below walks through data of patent US20070092508A1, “Detoxification depot for Alzheimer's disease” (Recombiant Technologies, LLC, priority 2005, published 2007).

Non-standard residues stand in square brackets, D forms with d. No end group written: not given here.

For assay [1], the system named is Aβ. Conditions: AD model mice, after 1 day of treatment; cited from earlier work.
Assay [2] deals with Aβ (Homo sapiens, UniProt P05067). The conditions noted are these: shortest fragment of Aβ1-40; cited from earlier work.
Assay [3] deals with Aβ fibril formation (Homo sapiens, UniProt P05067). Conditions: microscopy; cited from earlier work.
Assay [4] has as its target T1, biotinylated Aβ^1-40 peptide (Homo sapiens, UniProt P05067).
T1 construct: purchased
Briefly: Direct ELISA: plate-immobilised capture peptide probed with biotinylated Aβ1-40. Conditions: 1 μg/well capture peptide, 1 μg/ml biotinylated Aβ, 2 hours; compared with scrambled or irrelevant control peptide (FIG. 1a). It is filed as binding. How it is done: (§1) FIG. 1a graphically illustrates binding of biotinylated Aβ^1-42 and biotinylated Aβ^1-40 peptide (SEQ ID NO: 2) by RI peptide. 96-well plate was coated with the capture peptide (1 μg/well of retro-inverso [RI], scrambled [SCR] or an irrelevant control peptide), blocked with gelatin and probed with 1 μg/ml of biotinylated Aβ peptide for 2 hours and streptavidin peroxidase for 1 hour. Experiments were repeated and were calculated as Mean±SE (N=2) and expressed as pmols Aβ^1-42/ml of binding solution. Graded concentrations of biotinylated Aβ^1-42 peptide (SEQ ID NO: 3) was used as a calibration standard.
(§2) Testing the binding and stability of biotinylated Aβ peptides in binding solution.

The target of assay [5] is T2, biotinylated Aβ^1-42 peptide (Homo sapiens, UniProt P05067).
T2 construct: purchased
Briefly: Direct ELISA: plate-immobilised capture peptide probed with biotinylated Aβ1-42. Conditions: 1 μg/well capture peptide, 1 μg/ml biotinylated Aβ, 2 hours; compared with scrambled or irrelevant control peptide (FIG. 1a). Format: binding. How it is done: as §1, §2
(In general: ELISA stands for enzyme-linked immunosorbent assay.)

For assay [6], the target named is biotinylated Abeta 1-40 peptide. Briefly: binding experiments with the gel, ELISA of the solution.
Chain of biotinylated Abeta 1-40 peptide (peptide, as listed by the source): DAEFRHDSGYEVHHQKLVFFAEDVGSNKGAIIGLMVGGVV

Chain of Aβ (P05067 672-711 limits assumed): as the sequence (peptide, as listed by the source) above
T2 sequence (P05067 672-713): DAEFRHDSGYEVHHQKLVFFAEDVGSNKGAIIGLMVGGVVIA
T1 sequence (P05067 672-711): as the sequence (peptide, as listed by the source) above
Chain of Aβ (Homo sapiens, UniProt P05067) (P05067 672-711 limits assumed): as the sequence (peptide, as listed by the source) above
Chain of Aβ fibril formation (P05067 672-711 limits assumed): as the sequence (peptide, as listed by the source) above

GM1: in assay [1], the “levels of Aβ in brain” value is “reduced in half” and the “reduction of Aβ in brain” value is listed as approximately 500 ng/g tissue.
As to KLVFF, the Aβ binding capacity entry in assay [2] was “consistently high Aβ binding capacity”. For the same molecule, in assay [3], the “effect on fibril formation in vitro” value is “able to interfere with fibril formation”.
On to “phe-phe-val-leu-lys-Cys ([dF][dF][dV][dL][dK][dC]; not fully specified (C-terminus); printed as phe-phe-val-leu-lys-cys) [RI peptide]”, for which the “binding of biotinylated Aβ^1-40 to immobilised peptide” value in assay [4] is “significant and specific binding”. Further, the “binding of biotinylated Aβ^1-42 to immobilised peptide” value in assay [5] was “significant and specific binding”.
With gelsolin, in assay [1], the “levels of Aβ in brain” value is reported as “reduced in half” and the “reduction of Aβ in brain” value is approximately 500 ng/g tissue.

B1: detox gel (RI gel): retro-inverso peptide phe-phe-val-leu-lys-Cys linked by its cysteine thiol to a cross-linked 8-arm PEG hydrogel (peptide)
peptide: FFVLKC
modifications: not fully specified; composed of D-amino acids; Cys thiol linked to vinyl sulfone-PEG of the gel matrix; C-terminus amidated per the note to Table 1
In turn, B1 showed a percent of possible binding in a 1:1 complex in assay [6] of 5%.
